Blank lines part the entries; values can stand above or below the binder they belong to.
Columns and labels:
[1] = target: T1, recombinant soluble human amphiregulin (human, UniProt P15514 101-198, limits assumed); test: SPR (BIAcore 3000), antibody immobilized, AR as analyte
T1 construct: also called AR; human AR
T1 sequence: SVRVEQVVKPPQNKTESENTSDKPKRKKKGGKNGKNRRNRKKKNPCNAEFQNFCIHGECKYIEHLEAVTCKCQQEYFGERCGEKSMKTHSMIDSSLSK
Method: (§1) Affinities between human amphiregulin (AR) and PAR34 or HuPAR34 were analyzed using BIAcore 3000 (BLAcore, Sweden).
(§2) The BIAcore analysis may be conducted according to the following protocol. PAR34 or HuPAR34 is immobilized on the Pioneer F1 chip using standard amine coupling kit (BIAcore). Surface plasmon resonance is measured at a flow rate of 50 μl/min at 24° C. Injection of AR (association phase) occurs over 180 seconds. Dissociation is subsequently monitored over 3 hours. Kinetics of binding (ka and kd) are calculated from data acquired at five different concentrations of analyte (320 nM, 160 nM, 80 nM, 40 nM, 20 nM), using the BIAevaluation program. Double-referencing is applied to eliminate responses from reference surface and buffer only control. The binding affinity, KD, is obtained by simultaneously fitting the association and dissociation phases of the sensorgram from the analyte concentration series.

[2] = target: T1, recombinant soluble human amphiregulin; test: competition ELISA on coated recombinant soluble human amphiregulin, competitor against biotinylated PAR34, Exp. B
Method: (§3) The affinity of HuPAR34 to human amphiregulin was analyzed by competition ELISA. MaxiSorp ELISA plates (Nalge Nunc International) were coated overnight at 4° C. with 100 μl/well of 0.5 μg/ml recombinant soluble human amphiregulin in 0.2 M sodium carbonate-bicarbonate buffer, pH 9.4, washed with Wash Buffer (PBS containing 0.1% Tween 20), and blocked for 15 min at room temperature with 200 μl/well of SuperBlock Blocking Buffer in TBS (Pierce Chemical Company). After washing with Wash Buffer, a mixture of biotinylated PAR34 (0.125 μg/ml final concentration) and competitor antibody (PAR34 or HuPAR34 starting at 75 μg/ml final concentration and serially diluted 3-fold) in 100 μl/well of ELISA buffer was added in triplicate. As a control, 100 μl/well of 75 μg/ml of humanized anti-CD33 IgG1/κ monoclonal antibody HuM195 (Co, M. S. et al., J. Immunol., 148: 1149-1154 (1992)) in ELISA buffer was used. As a no-competitor control, 100 μl/well of ELISA Buffer was used. After incubating the plates for 1 hr and washing with Wash Buffer, bound antibodies were detected using 100 μl/well of 1 μg/ml HRP-conjugated streptavidin (Pierce Chemical Company) in ELISA buffer. After incubating for 0.5 hr at room temperature and washing with Wash Buffer, color development was performed by adding 100 μl/well of ABTS substrate (KPL, Inc.). […] Absorbance was read at 415 nm. […]

[3] = target: T1, recombinant soluble human amphiregulin; test: competition ELISA against biotinylated PAR34, Exp. B
Method: as §3

[4] = target: T1, recombinant soluble human amphiregulin; test: competition ELISA on plate-coated recombinant soluble human amphiregulin; competes with biotinylated PAR34
Method: as §3

[5] = target: T1, recombinant soluble human amphiregulin; test: cell-based or functional assay
[6] = target: T1, recombinant soluble human amphiregulin; test: competition ELISA against biotinylated PAR34, Exp. C
Method: as §3

[7] = target: T1, recombinant soluble human amphiregulin; test: competition ELISA on coated recombinant soluble human amphiregulin, competitor against biotinylated PAR34, Exp. D
Method: as §3

[8] = target: T1, recombinant soluble human amphiregulin; test: SPR (BIAcore 3000)
Method: as §1, §2

[9] = target: T1, recombinant soluble human amphiregulin; test: competition ELISA on coated recombinant soluble human amphiregulin, competitor against biotinylated PAR34, Exp. C
Method: as §3

[10] = target: T1, recombinant soluble human amphiregulin; test: competition ELISA against biotinylated PAR34, Exp. A
Method: as §3

[11] = target: T1, recombinant soluble human amphiregulin; test: competition ELISA on coated recombinant soluble human amphiregulin, competitor against biotinylated PAR34, average of Exp. A-D
Method: as §3

[12] = target: T1, recombinant soluble human amphiregulin; test: competition ELISA on coated recombinant soluble human amphiregulin, competitor against biotinylated PAR34, Exp. A
Method: as §3

[13] = target: T1, recombinant soluble human amphiregulin; test: competition ELISA against biotinylated PAR34, average of Exp. A-D
Method: as §3

[14] = target: T1, recombinant soluble human amphiregulin; test: competition ELISA against biotinylated PAR34, Exp. D
Method: as §3

Kd [1]: 0.53 nM
koff [1]: 0.00823 s⁻¹
kon [1]: 1.26e+07 M⁻¹ s⁻¹
IC50 [2]: 1.11 µg/mL
fold difference of IC50, HuPAR34 against PAR34 [3]: 1.4 fold
IC50 (read off the curve) [4]: ~2 µg/mL
IC50 of inhibition of AR-mediated proliferation in 3T3 cells [5]: 0.055 µg/mL
fold difference of IC50, HuPAR34 against PAR34 [6]: 1.4 fold
IC50 [7]: 2.76 µg/mL
fold difference of affinity, HuPAR34 against PAR34 [8]: ≤ 2 fold
IC50 [9]: 1.76 µg/mL
fold difference of IC50, HuPAR34 against PAR34 [10]: 2.4 fold
IC50 [11]: 1.9 µg/mL
IC50 [12]: 1.95 µg/mL
fold difference of IC50, HuPAR34 against PAR34 [13]: 1.8 fold
fold difference of IC50, HuPAR34 against PAR34 [14]: 2 fold
B1: HuPAR34 (humanized PAR34, IgG1/kappa) (antibody, V domains shown)
VH: EVQLVQSGAEVKKPGASVKISCKVSGYAFTNYNMYWVRQAPGKGLEWIGYIDPYYGDPGYSQKFKGKATLTVDKSTSTAYMELSSLRSEDTAVYYCARRGNFPYYFDYWGQGTLVTVSS
VL: DIQMTQSPSSLSASVGDRVTITCKASQDINSYLSWFQQKPGKAPKTLIYRANRLVDGVPSRFSGSGSGQDYTLTISSLQPEDFATYYCLQYDEFPYTFGGGTKVEIK

Kd [1]: 0.41 nM
koff [1]: 0.024 s⁻¹
kon [1]: 4.8e+07 M⁻¹ s⁻¹
IC50 [2]: 0.78 µg/mL
IC50 (read off the curve) [4]: ~1 µg/mL
IC50 of inhibition of AR-mediated proliferation in 3T3 cells [5]: 0.025 µg/mL
IC50 [7]: 1.39 µg/mL
IC50 [9]: 1.3 µg/mL
IC50 [11]: 1.07 µg/mL
IC50 [12]: 0.82 µg/mL
B2: PAR34 (murine anti-amphiregulin monoclonal antibody) (antibody, mouse IgG2b, V domains shown)
VH: EIQLQQSGPELVKPGASVKVSCKASGYAFTNYNMYWVKQSHGKSLEWIGYIDPYYGDPGYSQKFKGKATLTVDKSSSTAYMHLNSLTSEDSAVYYCARRGNFPYYFDYWGQGTTLTVSS
VL: DIKMTQSPSSMYASLGERVTITCKASQDINSYLSWFQQKPGKSPKTLIYRANRLVDGVPSRFSGSGSGQDYSLTISSLEYEDMGIYYCLQYDEFPYTFGGGTKLEIK

From patent US20040210040A1 (PDL BIOPHARMA, published 2004)
